Assay [1] concerns the target FLAG-ySUMO-mT1r3 CTΔ (mouse). As to the kind of experiment: SPR; Biacore 2000; ySUMO-fusion proteins amine-coupled on a CM5 chip, ySUMO on the reference cell; mCaM injected, 2-fold dilutions from 40 μM, +Ca2+ (1 mM CaCl2), 25°C, 30 μl/min; KD from equilibrium responses, 1:1 model.
Assay [2] has as its target FLAG-ySUMO-mT1r2 CTΔ (mouse). The description is as above.
Assay [3] addresses FLAG-ySUMO-mT1r3 CTΔ (mouse). As to the kind of experiment: SPR; Biacore 2000; ySUMO-fusion proteins amine-coupled on a CM5 chip, ySUMO on the reference cell; mCaM injected, 2-fold dilutions from 40 μM, -Ca2+ (1 mM EGTA), 25°C, 30 μl/min.
Assay [4] addresses FLAG-ySUMO-mT1r2 CTΔ (mouse). The assay is described as above.
The target of assay [5] is biotin-mT1r1 CT peptide (cytosolic C-terminal region of mouse taste receptor type 1 subunit 1) (mouse) (UniProt Q99PG6). Briefly: SPR; Biacore 2000; biotinylated T1r peptides on a CAP chip (Biotin CAPture Kit); mCaM injected, 2-fold dilutions from 50 μM, -Ca2+ (1 mM EGTA), 25°C, 30 μl/min.
biotin-mT1r1 CT peptide (cytosolic C-terminal region of mouse taste receptor type 1 subunit 1) (mouse), sequence (Q99PG6 other isoform, or with tags, fused parts or gaps): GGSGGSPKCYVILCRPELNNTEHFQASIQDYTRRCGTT
Assay [6] deals with biotin-mT1r2 CT peptide (cytosolic C-terminal region of mouse taste receptor type 1 subunit 2) (mouse) (UniProt Q925I4). The description is as above.
biotin-mT1r2 CT peptide (cytosolic C-terminal region of mouse taste receptor type 1 subunit 2) (mouse), sequence (Q925I4 other isoform, or with tags, fused parts or gaps): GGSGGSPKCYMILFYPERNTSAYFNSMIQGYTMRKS
Assay [7] addresses biotin-mT1r3 CT peptide (cytosolic C-terminal region of mouse taste receptor type 1 subunit 3) (mouse) (UniProt Q925D8). The assay is described as above.
Assay [8] concerns the target biotin-mT1r1 CT peptide (cytosolic C-terminal region of mouse taste receptor type 1 subunit 1) (mouse) (UniProt Q99PG6). As to the kind of experiment: SPR; Biacore 2000; biotinylated T1r peptides on a CAP chip (Biotin CAPture Kit); mCaM injected, 2-fold dilutions from 50 μM, +Ca2+ (1 mM CaCl2), 25°C, 30 μl/min; KD from equilibrium responses, 1:1 model.
Assay [9] has as its target biotin-mT1r2 CT peptide (cytosolic C-terminal region of mouse taste receptor type 1 subunit 2) (mouse) (UniProt Q925I4). The assay is described as above.
Assay [10] has as its target biotin-mT1r3 CT peptide (cytosolic C-terminal region of mouse taste receptor type 1 subunit 3) (mouse) (UniProt Q925D8). The assay is described as above.

biotin-mT1r3 CT peptide (cytosolic C-terminal region of mouse taste receptor type 1 subunit 3) (mouse), sequence (Q925D8 other isoform, or with tags, fused parts or gaps): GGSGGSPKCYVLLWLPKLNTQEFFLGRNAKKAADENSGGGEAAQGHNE

With “mouse calmodulin (from UniProt P0DP26 1-149) (natural protein)”, the Kd was determined as 80 µM in assay [1] and 41 µM in assay [2]. Further, the Req value at 40 μM mCaM injection came out at 101 RU in [1] and 114 RU in assay [2]. Further, the figures for the response at 40 μM mCaM injection in [3] and in [4] were 13 RU and 9.2 RU, respectively. Also, the response at 50 μM mCaM injection in assay [5] is 5 RU; in assay [6] it was 9.4 RU; in assay [7], 16 RU. This substance yielded a Req value at 25 μM mCaM injection in assay [8] of 10.6 RU. For the same substance, the Req value at 50 μM mCaM injection in assay [9] stood at 11 RU; in assay [10], 36.7 RU.

These data come from publication PMC11033526, “Direct binding of calmodulin to the cytosolic C-terminal regions of sweet/umami taste receptors” (Journal of Biochemistry, 2023).
